The experiment addresses T1, human ILT7 expressed on transfected cells (human, UniProt P59901 24-499).
T1 construct: whole, on cells; also called LILRA4; LIRA4
Put plainly: FMAT cell binding, CHO cells expressing human ILT7. From the text: This homogeneous assay assessed the binding of crude scFv supernatant samples or purified IgG to Chinese Hamster Ovary (CHO) cells expressing either human or cynomolgus ILT7 in a 384-well (Costar 3655) format. ScFv or Ab binding to cells was detected using a mouse anti-His/goat anti-mouse Alexafluor®-647 labelled antibody (Molecular Probes A21236) mix, or goat anti-human Alexafluor®-647 labelled antibody (Molecular Probes A21445) respectively. Plates were read on the Applied Biosystems Cellular Detection system 8200 reader. The Helium neon excitation laser was focused within 100 μm depth of the bottom of the well, scanning an area 1 mm². The cells settled at the bottom of the well, and upon laser excitation at 633 nm, those beads with fluorophore bound (where the local concentration of fluorophore is relatively high compared to unbound fluorophore) emitted a signal at 650-685 nm that was measured using photomultiplier tube-1 (PMT1). […] The presence of scFv or IgG samples binding to the cells at the bottom of the well caused an increase in Alexafluor-labeled detection antibody within the excitation depth. This was measured as an increase in fluorescence.
Species cross-reactivity of anti-ILT7 antibodies was determined using FMAT binding assay. The detailed assay method is provided in the Materials and Methods section. […]

T1 sequence (P59901 24-499): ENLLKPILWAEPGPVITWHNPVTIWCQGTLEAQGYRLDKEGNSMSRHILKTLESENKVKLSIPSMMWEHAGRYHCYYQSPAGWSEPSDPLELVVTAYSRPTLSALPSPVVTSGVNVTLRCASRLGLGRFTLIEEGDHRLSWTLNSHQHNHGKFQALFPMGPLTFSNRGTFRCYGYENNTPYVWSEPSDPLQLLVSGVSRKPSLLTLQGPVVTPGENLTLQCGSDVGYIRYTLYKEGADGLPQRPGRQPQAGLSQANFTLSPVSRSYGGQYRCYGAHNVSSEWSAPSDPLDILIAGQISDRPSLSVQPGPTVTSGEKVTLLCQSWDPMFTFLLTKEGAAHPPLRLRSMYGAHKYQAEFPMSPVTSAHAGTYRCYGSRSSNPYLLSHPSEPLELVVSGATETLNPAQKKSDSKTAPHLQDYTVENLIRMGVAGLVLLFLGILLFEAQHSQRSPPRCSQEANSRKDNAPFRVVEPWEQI

B1: ILT70100 (antibody, V domains shown)
VH: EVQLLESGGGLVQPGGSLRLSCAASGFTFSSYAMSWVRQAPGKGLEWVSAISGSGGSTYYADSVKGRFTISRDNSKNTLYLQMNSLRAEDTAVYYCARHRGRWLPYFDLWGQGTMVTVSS
VL: DIQLTQSPSSLSASVGERVTITCQASQDIRSYLNWYQQKPGKAPKLLIYDVSNLETGVPSRFSGSGSGTEYTFSISSLQPEDFATYYCQQYDKAPLTFGGGTKVEIK
For B1, the binding result is on record as “binds”.

B2: ILT70052 (antibody, V domains shown)
VH: EVQLVESGGGLVKPGGSLRLSCEASGFTFTDYYMNWIRQAPGKGLEWISYISPGGTTVYYADSVKGRFTISRDNAKNSLYLQMNSLRVEDTAVYYCARDISGYGDWFDPWGKGTLVTVSS
VL: QSVVTQPPSASGTPGQRVTISCSGSSSNIGSNTVNWYQLLPATAPRILIYNNNQRPSGVPDRFAGSKSGTSASLAISGLQSEDEADYYCGAWDDSLNSPVFGGGTKLTVL
For B2, the binding result was “binds”.

The values above are taken from US20230250167A1 (published 2023).
